B1: SMTNL2 (parent)
chain: ETAAGKGKGEARARLKRSQSFGVA
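Further: lentivirally expressed fusions sorted by FACS into six bins by GFP to DsRed ratio, PSI derived from sequencing read proportions per bin multiplied by bin number.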

Variants of B1 are the subject of this series. In words: protein stability index of a GFP-peptide fusion (GPS, HEK-293T) (PSI 1-6); higher = more stable. To be noted: c terminus: a fixed tail appended.
Turning to ETAAGKGKGEARARLKRGQSFGVA, the protein stability index was found to be 4.6.
With ETAAGKGKGEARARLKREQSFGVA the figure was 4.36; with ETAAGKGKGEARARLKRIQSFGVA, 3.52.
The value for ETAAGKGKGEARARLKRCQSFGVA was 3.81.
With ETAAGKGKGEARARLKRAQSFGVA the figure was 4.22; with ETAAGKGKGEARARLKRHQSFGVA, 4.02.
Take ETAAGKGKGEARARLKRMQSFGVA: the protein stability index was 3.69.
With ETAAGKGKGEARARLKRKQSFGVA the figure was 4.43; with ETAAGKGKGEARARLKRDQSFGVA, 4.46.
The value for ETAAGKGKGEARARLKRFQSFGVA was 3.65; that for ETAAGKGKGEARARLKRLQSFGVA was 3.49.
Consider ETAAGKGKGEARTRLKRSQSFGVA, for which the protein stability index was determined as 4.61.
With ETAAGKGKGEARQRLKRSQSFGVA the figure was 4.38; with ETAAGKGKGEARSRLKRSQSFGVA, 4.67; with ETAAGKGKGEARRRLKRSQSFGVA, 4.05.
With ETAAGKGKGEARVRLKRSQSFGVA the figure was 3.82.
The value for ETAAGKGKGEARWRLKRSQSFGVA was 3.67; that for ETAAGKGKGEARYRLKRSQSFGVA was 4.3; that for ETAAGKGKGEARAREKRSQSFGVA was 4.7.
ETAAGKGKGEARARSKRSQSFGVA: the protein stability index stood at 4.76.
In the case of ETAAGKGKGEARARVKRSQSFGVA, the protein stability index is 4.76.
The value for ETAAGKGKGEARARHKRSQSFGVA was 4.44; that for ETAAGKGKGEARARWKRSQSFGVA was 4.29.
With ETAAGKGKGEARARIKRSQSFGVA the figure was 4.51.
With ETAAGKGKGEARARYKRSQSFGVA the figure was 4.09; with ETAAGKGKGEARARFKRSQSFGVA, 3.69.
Consider ETAAGKGKGEARARGKRSQSFGVA, for which the protein stability index is 4.49.
With ETAAGKGKGEARARTKRSQSFGVA the figure was 3.83; with ETAAGKGKGEARARRKRSQSFGVA, 4.49; with ETAAGKGKGEARARCKRSQSFGVA, 4.24.
With ETAAGKGKGEARARKKRSQSFGVA the figure was 4.77.
As for ETAAGKGKGEARARAKRSQSFGVA, the protein stability index was 4.46.
Take ETAAGKGKGEARARNKRSQSFGVA: the protein stability index turned out to be 4.89.
The value for ETAAGKGKGEARARPKRSQSFGVA was 5.01; that for ETAAGKGKGEARARMKRSQSFGVA was 3.95; that for ETAAGKGKGEARARDKRSQSFGVA was 4.03.
Consider ETAAGKGKGEARARQKRSQSFGVA, for which the protein stability index came to 4.91.
With ETAAGKGKGEARARLKPSQSFGVA the figure was 3.23.
With ETAAGKGKGEARARLKWSQSFGVA the figure was 2.95; with ETAAGKGKGEARARLKYSQSFGVA, 3.81; with ETAAGKGKGEARARLKFSQSFGVA, 3.19.
The value for ETAAGKGKGEARARLKQSQSFGVA was 4.67; that for ETAAGKGKGEARARLKDSQSFGVA was 4.31.
ETAAGKGKGEARARLKESQSFGVA: the protein stability index was determined as 4.65.
The value for ETAAGKGKGEARARLKISQSFGVA was 3.82.
With ETAAGKGKGEARARLKGSQSFGVA, the protein stability index stood at 4.24.
ETAAGKGKGEARARLKCSQSFGVA: the protein stability index was determined as 3.62.
As to ETAAGKGKGEARARLKKSQSFGVA, the protein stability index is 4.6.
The value for ETAAGKGKGEARARLKLSQSFGVA was 3.76; that for ETAAGKGKGEARARLKASQSFGVA was 4.14.
With ETAAGKGKGEARARLKMSQSFGVA the figure was 4.09; with ETAAGKGKGEARARLKTSQSFGVA, 4.17.
With ETAAGKGKGEARARLKVSQSFGVA the figure was 3.59; with ETAAGKGKGEARARLKHSQSFGVA, 4.54.
Regarding ETAAGKGKGEARARLKNSQSFGVA, the protein stability index is 4.54.
With ETAAGKGKGEARARLKSSQSFGVA the figure was 4.18.
As for ETAAGKGKGEARAVLKRSQSFGVA, the protein stability index amounted to 4.25.
With ETAAGKGKGEARAWLKRSQSFGVA the figure was 4.03.
As for ETAAGKGKGEARALLKRSQSFGVA, the protein stability index was found to be 4.29.
With ETAAGKGKGEARAPLKRSQSFGVA the figure was 5.19; with ETAAGKGKGEARAALKRSQSFGVA, 3.79.
With ETAAGKGKGEARAFLKRSQSFGVA, the protein stability index came out at 4.18.
With ETAAGKGKGEARAMLKRSQSFGVA the figure was 4.27; with ETAAGKGKGEARAQLKRSQSFGVA, 4.66.
With ETAAGKGKGEARAILKRSQSFGVA the figure was 4.27; with ETAAGKGKGEARAHLKRSQSFGVA, 4.69.
With ETAAGKGKGEARANLKRSQSFGVA the figure was 4.68; with ETAAGKGKGEARATLKRSQSFGVA, 4.4; with ETAAGKGKGEARAGLKRSQSFGVA, 4.9.
On to ETAAGKGKGEARACLKRSQSFGVA, for which the protein stability index was 4.53.
Regarding ETAAGKGKGEARAYLKRSQSFGVA, the protein stability index turned out to be 4.09.
With ETAAGKGKGEARAELKRSQSFGVA the figure was 4.88; with ETAAGKGKGEARASLKRSQSFGVA, 4.41.
In the case of ETAAGKGKGEARADLKRSQSFGVA, the protein stability index stood at 4.82.
The value for ETAAGKGKGEARAKLKRSQSFGVA was 4.85; that for ETAAGKGKGEARARLNRSQSFGVA was 4.46.
With ETAAGKGKGEARARLIRSQSFGVA the figure was 3.35; with ETAAGKGKGEARARLDRSQSFGVA, 4.62.
The value for ETAAGKGKGEARARLRRSQSFGVA was 4.4; that for ETAAGKGKGEARARLCRSQSFGVA was 3.77; that for ETAAGKGKGEARARLHRSQSFGVA was 4.
Turning to ETAAGKGKGEARARLLRSQSFGVA, the protein stability index turned out to be 3.62.
For the variant ETAAGKGKGEARARLARSQSFGVA, the protein stability index worked out at 4.
For ETAAGKGKGEARARLVRSQSFGVA, the protein stability index is 3.9.
As to ETAAGKGKGEARARLTRSQSFGVA, the protein stability index stood at 4.39.
The value for ETAAGKGKGEARARLYRSQSFGVA was 3.74.
The value for ETAAGKGKGEARARLQRSQSFGVA was 4.21.
With ETAAGKGKGEARARLERSQSFGVA the figure was 4.57.
For ETAAGKGKGEARARLMRSQSFGVA, the protein stability index is 3.83.
With ETAAGKGKGEARARLPRSQSFGVA the figure was 4.03.
With ETAAGKGKGEARARLFRSQSFGVA the figure was 3.89.
The value for ETAAGKGKGEARARLWRSQSFGVA was 2.59; that for ETAAGKGKGEARARLSRSQSFGVA was 4.35.
Turning to ETAAGKGKGEARARLGRSQSFGVA, the protein stability index came to 4.67.
